The text below walks through data of patent publication US20120171210A1, “METHODS AND COMPOSITIONS FOR INHIBITING C-MET DIMERIZATION AND ACTIVATION” (Genentech, Inc., priority 2003, published 2012).

The test system of test [1] is MAPK. The test can be described thus: MAPK phosphorylation in A549 cells (immunoblot). Type of test: cell-based, Human. As to the method:
(§1) Cell lines were obtained from American Type Culture Collection (ATCC). 293 cells were maintained in DMEM supplemented with 10% FBS (Sigma), penicillin/streptomycin (GIBCO), and glutamine A549, H441, and MDA-MB-435 cells were maintained in 50:50 DMEM/F12 (Cellgro) supplemented with 10% FBS, penicillin/streptomycin, and glutamine Cells were transfected with 1-12 μg of the indicated constructs using Lipofectamine 2000 (Invitrogen) according to manufacturer's instructions. Twenty-four hrs later cells were harvested with 1% NP40 lysis buffer containing Complete protease inhibitor cocktail tablet and phosphatase inhibitor cocktail 2 (Roche and Sigma, respectively). For Met tyrosine phosphorylation and MAPK phosphorylation studies, cells were serum-starved for 2 hr with 0.5% BSA. Cells treated with 10 μg/ml anti-Met 5D5-Fab or rSema were incubated for an additional 1 hr prior to lysis. Cell debris was centrifuged and the supernatant was precleared with Protein A Sepharose (Sigma) or Protein G-Plus agarose beads (Santa Cruz) for 1 hr. 500 μg of lysates was then immunoprecipitated with 10 μg 5D5 antibody (Genentech) or 35 ul of Met (C-28) agarose conjugate (Santa Cruz) overnight at 4° C. with rotation. For HGF binding studies, 500 μg of lysates were incubated with 5 μg scHGF or HGF followed by immunoprecipitation with 1 μg of V5 antibody. Protein A or G beads were added for an additional 2 hrs before immunoprecipitates were washed 3 times with 1% NP40 lysis buffer. After addition of 2× sample buffer with 10 mM DTT, the samples were run on 4-12% Tris-glycine gels (Invitrogen). […] Proteins were detected by enhanced chemiluminescence (ECL-Plus, Amersham).
(§2) Human tumor cells were treated with increasing concentrations of rSema and analyzed for Met tyrosine phosphorylation and downstream activation of mitogen activated protein kinase (MAPK) upon HGF stimulation. […]
A general note: A western blot detects proteins with antibodies after separation by electrophoresis.

Test [2] deals with MAPK. The test can be described thus: MAPK phosphorylation in H441 cells (immunoblot). It is filed as cell-based, Human. The protocol: as §1, with “hr.” for “hr. 500 μg of lysates was then immunoprecipitated with 10 μg 5D5 antibody (Genentech) or 35 ul of Met (C-28) agarose conjugate (Santa Cruz) overnight at 4° C. with rotation. For HGF binding studies, 500 μg of lysates were incubated with 5 μg scHGF or HGF followed by immunoprecipitation with 1 μg of V5 antibody. Protein A or G beads were added for an additional 2 hrs before immunoprecipitates were washed 3 times with 1% NP40 lysis buffer. After addition of 2× sample buffer with 10 mM DTT, the samples were run on 4-12% Tris-glycine gels (Invitrogen).”
as §2

Test [3] concerns MAPK. The test is described as follows: MAPK phosphorylation in MDA-MB-435 cells (immunoblot). Type of test: cell-based, Human. The protocol: as §1, with “hr.” for “hr. 500 μg of lysates was then immunoprecipitated with 10 μg 5D5 antibody (Genentech) or 35 ul of Met (C-28) agarose conjugate (Santa Cruz) overnight at 4° C. with rotation. For HGF binding studies, 500 μg of lysates were incubated with 5 μg scHGF or HGF followed by immunoprecipitation with 1 μg of V5 antibody. Protein A or G beads were added for an additional 2 hrs before immunoprecipitates were washed 3 times with 1% NP40 lysis buffer. After addition of 2× sample buffer with 10 mM DTT, the samples were run on 4-12% Tris-glycine gels (Invitrogen).”
as §2

The next test concerns H441 cells. The test is described as follows: Scrape assay (Met mediated cell motility). Type of test: cell-based, Human. The protocol:
H441 cells were seeded at a density of 4.5×10^4 cells/well in a 96-well plate with 10% FBS in 50:50 DMEM/F12. The next day, a single scrape was made in the confluent monolayer in each well as described previously (Lorenzato et al., 2002). The cells were then incubated with media containing 0.5% BSA and treated with mock, 10 μg/ml 5D5, 10 μg/ml Sema, or 100 ng/ml HGF. The scrape was monitored and photographed daily. Representative results are shown for Day 2.
H441 cells were used in a scrape assay as a measure of Met mediated cell motility (Lorenzato et al., 2002). H441 cells grown to high density were scraped in each well on day 0 and maintained in serum-free media containing 0.5% BSA for the duration of the experiment (FIG. 6). Cells were either treated with 10 μg/ml rSema or 5D5 or 100 ng/ml HGF as a positive control or mock treated. […] These observations were consistent in four separate experiments.
To examine the effect of rSema on cell motility in the presence of ligand, cells were treated with 0, 0.1, 0.5, or 5 μg/ml rSema plus 20 ng/ml HGF. Cells treated with HGF alone closed the gap completely by Day 1.

The subject of the next test is MDA-MB-435 cells. The test is described as follows: Transwell migration assay. It is filed as cell-based, Human. To be noted: MDA-MB-435, 10 μg/ml in upper chamber, absence of HGF, vs mock. The protocol:
Transwell migration assays were carried out as previously described with modifications (Coltella et al., 2003). MDA-MB-435 cells were seeded at 1.2×10^5 cells in media containing 0.5% BSA to the upper chamber of each transwell (Costar) that had been previously coated with 10 ug/ml collagen type IV (Sigma). Mock, 10 μg/ml anti-Met 5D5-Fab, or 10 μg/ml Sema was added to the upper chamber. As a positive control, 100 ng/ml HGF was also added to the lower chamber of mock-treated wells. The next day, the cells were fixed with 4% paraformaldehyde and stained with 0.5% crystal violet. Cells that had migrated to the lower chamber were solubilized with 10% acetic acid and the absorbance was measured at 560 nm in a microplate reader.
A transwell assay with MDA-MB-435 cells was used to measure Met driven cell migration (Coltella et al., 2003). […] The data correlated with the scrape assay results in the H441 cell line. Activation of Akt was also examined in H441 and MDA-MB-435 cells used in the cell motility and migration assays. […] The data correlated with observations that rSema can inhibit cell motility in the presence of ligand. […]

Test [4] has as its system Akt. The test can be described thus: Akt phosphorylation in H441 cells. It is filed as cell-based, Human. As to conditions: H441, increasing concentrations of rSema in the presence of HGF; data not shown. The text has this:
(§3) A transwell assay with MDA-MB-435 cells was used to measure Met driven cell migration (Coltella et al., 2003). […] The data correlated with the scrape assay results in the H441 cell line. Activation of Akt was also examined in H441 and MDA-MB-435 cells used in the cell motility and migration assays. […] The data correlated with observations that rSema can inhibit cell motility in the presence of ligand. Taken together, these observations supports the conclusion that a Sema domain antagonist, such as a recombinant polypeptide comprising a Sema sequence, is capable of not only inhibiting Met activation, but also blocking downstream effects of cell motility and migration in both ligand dependent and independent contexts.

The test system of test [5] is Akt. The test is described as follows: Akt phosphorylation in MDA-MB-435 cells. It is filed as cell-based, Human. As to conditions: MDA-MB-435, increasing concentrations of rSema in the presence of HGF; data not shown.
From the text: as §3

The target of another test is Met (Homo sapiens, UniProt P08581). The test can be described thus: Met tyrosine phosphorylation in A549 cells (immunoprecipitation / phosphotyrosine immunoblot). It is filed as cell-based. More on the design: endogenous in cells; host or cells: A549 (lung carcinoma). As to the method:
as §1, §2

Setting [6] is: A549, serum-free, 10 μg/ml, absence of HGF, vs mock.

Met, sequence (P08581 308-1390, one chain of several): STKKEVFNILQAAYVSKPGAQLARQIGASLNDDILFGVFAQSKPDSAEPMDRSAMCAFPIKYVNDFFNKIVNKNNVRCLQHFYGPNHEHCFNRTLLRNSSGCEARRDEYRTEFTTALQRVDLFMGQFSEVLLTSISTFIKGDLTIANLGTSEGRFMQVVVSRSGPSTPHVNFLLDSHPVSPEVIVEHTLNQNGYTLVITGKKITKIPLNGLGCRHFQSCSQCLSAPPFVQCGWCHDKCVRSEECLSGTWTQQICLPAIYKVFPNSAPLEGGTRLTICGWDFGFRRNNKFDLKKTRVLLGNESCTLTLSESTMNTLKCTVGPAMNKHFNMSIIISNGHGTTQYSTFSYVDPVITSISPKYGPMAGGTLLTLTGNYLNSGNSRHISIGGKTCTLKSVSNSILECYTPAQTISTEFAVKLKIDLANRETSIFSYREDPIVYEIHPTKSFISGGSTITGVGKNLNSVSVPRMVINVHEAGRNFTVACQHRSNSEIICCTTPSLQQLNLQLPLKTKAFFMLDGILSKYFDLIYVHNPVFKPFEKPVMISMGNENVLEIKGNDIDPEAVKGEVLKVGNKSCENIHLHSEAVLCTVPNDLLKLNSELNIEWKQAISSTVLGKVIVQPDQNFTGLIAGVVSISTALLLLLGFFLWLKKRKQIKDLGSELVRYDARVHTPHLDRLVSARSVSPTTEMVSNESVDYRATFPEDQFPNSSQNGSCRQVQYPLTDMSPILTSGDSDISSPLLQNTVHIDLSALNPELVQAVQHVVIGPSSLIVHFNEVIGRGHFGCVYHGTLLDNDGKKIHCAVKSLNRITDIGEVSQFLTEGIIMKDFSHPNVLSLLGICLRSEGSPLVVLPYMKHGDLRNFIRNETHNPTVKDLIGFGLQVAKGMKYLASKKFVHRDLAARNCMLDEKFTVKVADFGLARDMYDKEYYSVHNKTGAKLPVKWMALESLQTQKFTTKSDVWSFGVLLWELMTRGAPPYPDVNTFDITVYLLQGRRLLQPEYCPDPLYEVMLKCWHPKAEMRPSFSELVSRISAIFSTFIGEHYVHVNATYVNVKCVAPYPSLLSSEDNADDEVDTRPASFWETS

B1: rSema: recombinant Sema (rSema) protein, which included the Sema and PSI domains of the Met receptor (residues 25-567, 8×His tag) (protein)
chain: ECKEALAKSEMNVNMKYQLPNFTAETPIQNVILHEHHIFLGATNYIYVLNEEDLQKVAEYKTGPVLEHPDCFPCQDCSSKANLSGGVWKDNINMALVVDTYYDDQLISCGSVNRGTCQRHVFPHNHTADIQSEVHCIFSPQIEEPSQCPDCVVSALGAKVLSSVKDRFINFFVGNTINSSYFPDHPLHSISVRRLKETKDGFMFLTDQSYIDVLPEFRDSYPIKYVHAFESNNFIYFLTVQRETLDAQTFHTRIIRFCSINSGLHSYMEMPLECILTEKRKKRSTKKEVFNILQAAYVSKPGAQLARQIGASLNDDILFGVFAQSKPDSAEPMDRSAMCAFPIKYVNDFFNKIVNKNNVRCLQHFYGPNHEHCFNRTLLRNSSGCEARRDEYRTEFTTALQRVDLFMGQFSEVLLTSISTFIKGDLTIANLGTSEGRFMQVVVSRSGPSTPHVNFLLDSHPVSPEVIVEHTLNQNGYTLVITGKKITKIPLNGLGCRHFQSCSQCLSAPPFVQCGWCHDKCVRSEECLSGTWTQQICLPAIYKHHHHHHHH
With B1, in the test with MAPK [1] (A549, increasing concentrations of rSema in the presence of HGF (10 ng/ml)), the “phosphorylation of MAPK” value was “phosphorylation of MAPK decreased”. Further, in the test on MAPK [1] (setting [6]), the phospho-MAPK levels result was “inhibition”. For the same molecule, the phospho-MAPK entry in the test on MAPK [2] (H441, 0-100 μg/ml rSema plus 5 ng/ml HGF, 5 min) is listed as “dose dependent decrease in phospho-MAPK”; in the test on MAPK [3] (MDA-MB-435, 0-100 μg/ml rSema plus 10 ng/ml HGF, 5 min), “dose dependent decrease in phospho-MAPK”. In addition, the MAPK phosphorylation entry in the test on MAPK [2] (H441, 10 μg/ml, absence of HGF) is recorded as “decrease in MAPK phosphorylation”; with MAPK [3] (MDA-MB-435, 10 μg/ml, absence of HGF), “decrease in MAPK phosphorylation”. Besides, the “gap closure in scrape assay in the presence of ligand” value in the test with H441 cells (0, 0.1, 0.5 or 5 μg/ml rSema plus 20 ng/ml HGF, data not shown) is recorded as “retained the gap in a dose dependent manner”. Further, in the test with H441 cells (H441, 10 μg/ml, serum-free, absence of HGF, Day 2, mock gap closed completely), the “gap closure in scrape assay” value was “a gap remained”. The “cell migration (absorbance at 560 nm of migrated cells)” value in the test with MDA-MB-435 cells was “consistently decreased”. Moreover, the Akt phosphorylation entry in the test on Akt [4] and in the test with Akt [5] was “dose dependent decrease in Akt phosphorylation” throughout. Besides, the Met phosphorylation entry in the test with Met (A549, serum starved, 0-100 μg/ml rSema with 10 ng/ml HGF, 10 min) is reported as “decrease in Met phosphorylation”. In addition, the “ligand independent Met phosphorylation” value in the test with Met (setting [6]) is “inhibition”.
